Laboratory results as given in patent US20220195070A1 (Chugai, published 2022).

Experiments:
[1] = biological target: T1, Anti-IL-8 Antibody; assay: SPR (Biacore T200), 25 C, pH 7.4; SKA antibody captured by anti-rabbit IgG, Anti-IL-8 Antibody injected 0-800 nM
T1 construct: also called anti-human IL-8 antibody; Fc-Mutated Antibody
Protocol: To confirm the binding ability of Anti Fc-Mutation Antibodies that show selective binding to SG115v1, KD values of Anti Fc-Mutation Antibodies against Anti-IL-8 Antibody at pH 7.4 were determined at 25 degrees C. using Biacore T200 instrument (GE Healthcare). Sequence of Fc region of Anti-IL-8 Antibody has high similarity to that of Anti-hC5 Antibody.
Anti-rabbit IgG (Abbexa) was immobilized onto FC1 and 2 of a CMS sensor chip using an amine coupling kit (GE Healthcare). For the immobilization of anti-rabbit IgG, HBS-EP+, pH7.4 (GE Healthcare) buffer was used as running buffer. After the immobilization, running buffer was changed to Phosphate pH7.4 buffer (50 mM phosphate buffer containing 150 mM NaCl and 0.05 w/v % P-20, pH 7.4). Each Anti Fc-Mutation Antibody was captured onto FC2 of the sensor chip by anti-rabbit IgG. The amount of Anti Fc-Mutation Antibody to be captured was adjusted so that the number of resonance units (RU) was 100. Anti-IL-8 Antibody was injected at 0, 100, 400, and 800 nM at 10 micro L/min. Sensor surface was regenerated after each cycle with 10 mM Glycine-HCl, pH2.0, which was injected at a flow rate of 30 micro L/min. KD values were obtained using Biacore T200 Evaluation software, version 2.0 (GE Healthcare).

[2] = biological target: T2, G4d (human, UniProt P01861 1-325 = IgG part); assay: ELISA, OD405 against dose (ng/mL, log axis 1-100)
T2 construct: Construct used in the ELISA is not described beyond the constant region
T2 sequence (P01861 1-325 S108P limits assumed): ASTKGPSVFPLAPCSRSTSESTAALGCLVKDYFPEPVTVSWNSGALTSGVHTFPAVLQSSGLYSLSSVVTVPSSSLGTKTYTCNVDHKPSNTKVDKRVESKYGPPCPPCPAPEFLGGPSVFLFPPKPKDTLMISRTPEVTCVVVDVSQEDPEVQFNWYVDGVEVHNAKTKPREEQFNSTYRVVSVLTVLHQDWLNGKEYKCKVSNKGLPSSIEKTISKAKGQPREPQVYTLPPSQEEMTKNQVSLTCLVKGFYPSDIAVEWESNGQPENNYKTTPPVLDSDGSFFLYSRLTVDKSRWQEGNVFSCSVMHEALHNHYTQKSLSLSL

[3] = biological target: T3, Glm (human, UniProt P01857 1-328 = IgG part); assay: ELISA, OD405 against dose (ng/mL, log axis 1-100)
T3 construct: Construct used in the ELISA is not described beyond the constant region; also called G1m
T3 sequence (P01857 1-328 D239E/L241M limits assumed): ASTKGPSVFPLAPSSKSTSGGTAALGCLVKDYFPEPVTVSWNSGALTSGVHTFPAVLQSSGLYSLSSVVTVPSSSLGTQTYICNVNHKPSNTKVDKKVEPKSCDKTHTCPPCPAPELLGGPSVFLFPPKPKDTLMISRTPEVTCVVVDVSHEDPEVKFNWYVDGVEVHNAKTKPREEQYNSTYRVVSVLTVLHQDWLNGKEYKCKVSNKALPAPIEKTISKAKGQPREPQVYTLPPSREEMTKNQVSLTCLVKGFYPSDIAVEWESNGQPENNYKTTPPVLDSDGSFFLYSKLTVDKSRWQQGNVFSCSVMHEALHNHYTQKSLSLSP

[4] = biological target: T4, SG115 (human, UniProt P01857 1-328 = IgG part); assay: ELISA, OD405 against dose (ng/mL, log axis 1-100)
T4 construct: also called modified IgG heavy chain constant region SG115
T4 sequence (P01857 other isoform, or with tags, fused parts or gaps limits assumed): as the sequence (P01857 1-328 D239E/L241M limits assumed) above, with L118R, G119R, S122K, A210G, A213S, P214S, M311L, N317A, Q321R, S323E counted along it

[5] = biological target: T5, SG115v1 (human, UniProt P01857 1-328 = IgG part); assay: ELISA, OD405 against dose (ng/mL, log axis 1-100)
T5 construct: Carries the CH2 modifications of SG115 (Arg235, Arg236, Lys239, EU); Construct used in the ELISA is not described beyond the constant region; also called modified IgG heavy chain constant region SG115v1
T5 sequence (P01857 other isoform, or with tags, fused parts or gaps limits assumed): as the sequence (P01857 1-328 D239E/L241M limits assumed) above, with L118R, G119R, S122K, A210G, A213S, P214S counted along it

[6] = biological target: T6, SG115v2 (human, UniProt P01857 1-328 = IgG part); assay: ELISA, OD405 against dose (ng/mL, log axis 1-100)
T6 construct: Carries the CH3 modifications of SG115 (Leu428, Ala434, Arg438, Glu440, EU); Construct used in the ELISA is not described beyond the constant region; also called modified IgG heavy chain constant region SG115v2
T6 sequence (P01857 other isoform, or with tags, fused parts or gaps limits assumed): as the sequence (P01857 1-328 D239E/L241M limits assumed) above, with A210G, A213S, P214S, M311L, N317A, Q321R, S323E counted along it

T1 sequence (constant, as listed by the source limits assumed): as the sequence (P01857 1-328 D239E/L241M limits assumed) above, with L118R, G119R, A210G, A213S, P214S, M311L, N317A, Y319T, Q321R, S323E counted along it

Binder | Kd [1] [nM] | koff [1] [s⁻¹] | kon [1] [M⁻¹ s⁻¹] | binding result [2] | binding result [3] | binding result [4] | binding result [5] | binding result [6]
SKA0054 (antibody, V domains shown, Recombinant rabbit monoclonal from B-cell cloning, expressed in FreeStyle 293-F cells; the first screen used B-cell culture supernatant; also called Anti-SG115 Antibody; rabbit Anti Fc-Mutation Antibody) VH: QSLEESGGGLVQPEGSLTLTCTASGFSFSSSFWICWVRQAPGKGLEWLACIDAGSSDNTYYANWAKGRFTISKTSSTTVTLQMTSLTDADTATYFCARDRDAAGDAGYGYATSFNLWGPGTLVTVSS VL: AIDMTQTPSSVSAAVGGTVTINCQASESIYSNLAWYQQKPGQRPKLLIYLASTLASGVPSRFKGSGSGTEFTLTISDLECADAATYYCQSVYYDSRGDTFFWAFGGGTEVVVKG | 96.8 | 0.000966 | 9980 | no binding (tested: about 60 ng/mL) | no binding (tested: about 60 ng/mL) | binds | binds | no binding (tested: about 60 ng/mL)
SKA0127 (antibody, V domains shown, Recombinant rabbit monoclonal from B-cell cloning, expressed in FreeStyle 293-F cells; the first screen used B-cell culture supernatant; also called Anti-SG115 Antibody; rabbit Anti Fc-Mutation Antibody) VH: QSVEESGGRLVTPGTPLTLTCTVSGIDLSTYAMTWVRQAPGKGLEYIGYINGGGSAYYASWVNGRFTISKTSTTADLKITSPTTEDTATYFCARGPVGSYHRIWGPGTLVTVSS VL: ALVMTQTPSSVSEPVGGTVTINCRASEDIESYLAWYQQKPGQPPKLLIYATSNLETGVPSRFKGSGSGTDYTLTISGVQCADAATYYCQGYYELSSIDNNAFGGGTEVVVKG | 45.4 | 0.000804 | 17700 | no binding (tested: about 60 ng/mL) | no binding (tested: about 60 ng/mL) | binds | binds | no binding (tested: about 60 ng/mL)
